Substitutions are numbered along the chain they refer to. In names and notes the source's numbering stands.
B1: Thermus thermophilus Csm6 (enzyme, UniProt Q53W17 1-464, looked up)
chain: MEDLDALWERYREAVRAGGNPQALYQEMVWPALLALWREKPRVYPFPQAFAVSVHTLGTSPEATALAILGAGAERVYVLHTPESARFLPRLRQDTGKDLYPVEIGKSDVEAIYREVKRLLEKHPEVPVALDLTSGTKAMSAGLAAAGFFFQRFYPKVRVVYVDNEDYDPELRRPRAGTEKLRILPNPHEALAEVDALFAKELYGKGEFGQAAAYFRGMVGRTGNQAYALYALLAEMYRAWRALDFGEALKAGRKLLGQLSQNVWLNHPLNARREALEAQVALLEAVDRFLKARDFALKEGVYGLARTLLHLAQEAKEEAAVLAALYAYRALELLLQERLALLGRRAEAPGLSPEEAEALRKALAELLGVLPEEVRLPAKLGLLDLLAFLRLKGDEALGRLSLAELRGLAGALKGRNSALLVHGFDVPSPKAVEGIARLAQGLLQDLEARTALGPLSPEPVPLGF
notes: amplified from genomic DNA; Homodimer in the crystal and in solution; also called TtCsm6; TTHB152; not shown: His6, N-terminal, cleaved
B2: TtCsm6 with His422 substituted by alanine (enzyme, Thermus thermophilus, UniProt Q53W17 1-464, looked up)
chain: B1 chain with H422A
notes: also called H422A; not shown: His6, N-terminal, cleaved
B3: TtCsm6 with Glu332 substituted by alanine (enzyme, Thermus thermophilus, UniProt Q53W17 1-464, looked up)
chain: B1 chain with E332A
notes: also called E332A; not shown: His6, N-terminal, cleaved
B4: TtCsm6 with Asn416 substituted by alanine (enzyme, Thermus thermophilus, UniProt Q53W17 1-464, looked up)
chain: B1 chain with N416A
notes: also called N416A; not shown: His6, N-terminal, cleaved
B5: TtCsm6 with Arg415 substituted by alanine (enzyme, Thermus thermophilus, UniProt Q53W17 1-464, looked up)
chain: B1 chain with R415A
notes: also called R415A; not shown: His6, N-terminal, cleaved

Biological target: the molecule itself
Assay: SEC; size-exclusion chromatography of purified proteins (Supplemental Fig. 3); the purification used Superdex 200 (26/600) in 20 mM HEPES 7.5, 500 mM KCl

Stoichiometry N, 2:
B1, B2, B3, B4, B5

Reference: publication PMC4748810, “Structural basis for the endoribonuclease activity of the type III-A CRISPR-associated protein Csm6” (RNA, 2016)
